The values that follow come from PMC8721105.

Experiment [1] has as its target TbPEX19FL-His (T. brucei). Nature of the experiment: AlphaScreen or HTRF.
For experiment [2], the target named is TbPEX19FL-His (T. brucei). Nature of the experiment: ELISA.
Experiment [3] addresses GST-TbPEX3d44 (T. brucei). Nature of the experiment: AlphaScreen or HTRF. (In general: Alpha assays give light when donor and acceptor beads are brought close together.)

For GST-TbPEX3d44 (domain or fragment), the figures for the Kd in experiment [1] and in experiment [2] were 32.8 nM and 0.16 nM, respectively.
For tag-free TbPEX19 (natural protein), the Kd (as a rule, the free concentration of one partner at which half of the binding sites on the other are occupied at equilibrium, for simple one-to-one binding) in experiment [3] came to 9.7 nM.
Same read-out and setting: under TbPEX19-Strep (natural protein) stands 3.7 nM.
